Target: T1, human angiotensin-converting enzyme 2 (ACE2), residues 1-615, untagged (human, UniProt Q9BYF1 18-615)
T1 construct: also called human ACE2; not shown: TwinStrepTag, C-terminal, cleaved; 8XHisTag, C-terminal, cleaved
Assay: SPR; […], Biacore X100; 10 mM HEPES pH 8.0, 150 mM NaCl, 0.05% Tween 20; […]; 1:1 binding model
Settings: both partners purified

T1 sequence (Q9BYF1 18-615): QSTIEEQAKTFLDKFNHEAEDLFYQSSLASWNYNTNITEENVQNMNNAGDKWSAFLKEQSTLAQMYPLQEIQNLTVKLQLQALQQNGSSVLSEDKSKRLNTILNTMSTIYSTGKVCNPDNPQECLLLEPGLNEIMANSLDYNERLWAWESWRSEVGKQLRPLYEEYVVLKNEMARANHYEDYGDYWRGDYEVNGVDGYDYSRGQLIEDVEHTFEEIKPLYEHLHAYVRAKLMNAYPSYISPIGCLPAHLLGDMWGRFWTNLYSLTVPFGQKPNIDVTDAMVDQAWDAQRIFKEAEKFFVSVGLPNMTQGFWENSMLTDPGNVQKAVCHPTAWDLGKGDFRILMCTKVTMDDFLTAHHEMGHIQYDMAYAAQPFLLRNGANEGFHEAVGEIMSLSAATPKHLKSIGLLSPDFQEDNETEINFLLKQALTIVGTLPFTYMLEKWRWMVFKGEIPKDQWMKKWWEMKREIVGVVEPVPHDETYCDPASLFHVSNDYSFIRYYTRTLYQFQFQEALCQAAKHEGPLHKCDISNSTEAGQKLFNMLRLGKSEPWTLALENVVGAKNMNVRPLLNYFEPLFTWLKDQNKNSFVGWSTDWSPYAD

B1: SARS-CoV RBD-SD1 (S residues 306-577, Urbani strain), His-tagged (domain or fragment)
chain: not shown
**Q.** Does B1 bind?
**A.** binds
